B1: ag9: recombinant terpinolene synthase from Grand fir encoded by clone ag9 (SEQ ID NO:77; protein SEQ ID NO:78) (protein, listed as Abies grandis)
chain: MALVSILPLSSKSVLHKSWIVSTYEHKAISRTIPNLGLRGRGKSVTHSLRMSLSTAVSDDHGVQRRIVEFHSNLWDDDFIQSLSTPYGAPSYRERADRLIVEVKGIFTSISAEDGELITPLNDLIQRLLMVDNVERLGIDRHFKNEIKAALDYVYSYWNEKGIGSGSDSGVADLNSTALGFRILRLHGYSVSSDVLEHFKEEKEKGQFVCSAIQTEEEIKSVLNLFRASLIAFPGEKVMEEAEIFSKIYLKEALQNIAVSSLSREIEYVLEDGWQTNMPRLETRNYIDVLGENDRDETLYMNMEKLLEIAKLEFNIFHSLQQRELKDLSRWWKDSGFSHLTFSRHRHVEFYALASCIETDRKHSGFRLGFAKMCHLITVLDDIYDTFGTMEELELFTAAFKRWDPSATDLLPEYMKGLYMVVYETVNEIAREADKSQGRETLNDARRAWEAYLDSYMKEAEWISSGYLPTFEEYMETSKVSFGYRIFALQPILTMDVPLTHHILQEIDFPLRFNDLICSILRLKNDTRCYKADRARGEEASCISCYMKENPGSTEEDAINHINAMVNNLIKEVNWELLRQDGTAHIACKKHAFDILKGSLHGYKYRDGFSVANKETKNWVRRTVLESVPL
B2: ag6: recombinant (−)-camphene synthase from Grand fir encoded by clone ag6 (SEQ ID NO:64; protein SEQ ID NO:65) (protein, listed as Abies grandis)
chain: MALLSITPLVSRSCLSSSHEIKALRRTIPTLGICRPGKSVAHSINMCLTSVASTDSVQRRVGNYHSNLWDDDFIQSLISTPYGAPDYRERADRLIGEVKDIMFNFKSLEDGGNDLLQRLLLVDDVERLGIDRHFKKEIKTALDYVNSYWNEKGIGCGRESVVTDLNSTALGLRTLRLHGYTVSSDVLNVFKDKNGQFSSTANIQIEGEIRGVLNLFRASLVAFPGEKVMDEAETFSTKYLREALQKIPASSILSLEIRDVLEYGWHTNLPRLEARNYMDVFGQHTKNKNAAEKLLELAKLEFNIFHSLQERELKHVSRWWKDSGSPEMTFCRHRHVEYYALASCIAFEPQHSGFRLGFTKMSHLITVLDDMYDVFGTVDELELFTATIKRWDPSAMECLPEYMKGVYMMVYHTVNEMARVAEKAQGRDTLNYARQAWEACFDSYMQEAKWIATGYLPTFEEYLENGKVSSAHRPCALQPILTLDIPFPDHILKEVDFPSKLNDLICIILRLRGDTRCYKADRARGEEASSISCYMKDNPGLTEEDALNHINFMIRDAIRELNWELLKPDNSVPITSKKHAFDISRVWHHGYRYRDGYSFANVETKSLVMRTVIEPVPL

Test: Terpene synthase assay and GC-MS / chiral GC product identification of recombinant enzymes expressed from pSBET in E. coli BL21(DE3) (Example 11)
Format: biochemical
Description: For functional expression, bacterial strains E. coli BL21(DE3)/pSAG2(M), E. coli BL21(DE3)/pSAG2(R), E. coli BL21(DE3)/pSAG3(R), E. coli BL21(DE3)/pSAG6(M), E. coli BL21(DE3/pSAG6(R), E. coli BL21(DE3)/pSAG8(M), E. coli BL21(DE3)/pSAG9(M), E. coli BL21(DE3)/pSAG11(M) and E. coli BL21(DE3)/SAG11(R) were grown to A600=0.5 at 37° C. in 5 ml of Luria-Bertani medium (Sambrook, J., Fritsch, E. F., and Maniatis, T. (1989) Molecular Cloning: A Laboratory Manual, 2nd Ed., pp. 7.20-7.43, Cold Spring Harbor, N.Y.) supplemented with 30 μg kanamycin/ml. Cultures were then induced by addition of 1 mM isopropyl-1-thio-β-D-galactopyranoside and grown for another 12 h at 20° C. Cells were harvested by centrifugation and disrupted by sonication followed by centrifugation, and the resulting soluble enzyme preparations were assayed for monoterpene, sesquiterpene and diterpene synthase activity using the appropriate radiolabeled substrate as described previously (Bohlmann, J., Steele, C. L., and Croteau, R. (1997) J. Biol. Chem. 272, 21784-21792). This assay involves the isolation and separation of terpene olefins and oxygenated terpenes by column chromatography on silica, followed by scintillation counting to determine conversion rate. GC-MS analysis is employed for product identification, by comparison of retention times and mass spectra to those of authentic standards (Bohlmann, J., Steele, C. L., and Croteau, R. (1997) J. Biol Chem. 272, 21784-21792); assignment of absolute configuration is based upon chiral column capillary GC and matching of retention time to that of the corresponding enantiomer (Lewinsohn, E., Savage, T. J., Gijzen, M., and Croteau, R. (1993) Phytochem. Anal. 4, 220-225). To insure production of sufficient material for identification, the standard assay (Bohlmann, J., Steele, C. L., and Croteau, R. (1997) J. Biol. Chem. 272, 21784-21792) was scaled up by a factor of 20.
Initially, the four pSBET plasmids pSAG6(M), pSAG8(M), pSAG9(M) and pSAG11(M), containing the full-length cDNA inserts of ag6 (SEQ ID NO:64), ag8 (SEQ ID NO:66), ag9 (SEQ ID NO:77) and ag11 (SEQ ID NO:68), respectively, were expressed in E. coli BL21(DE3). Extracts of the induced, transformed bacterial cells were assayed for monoterpene, sesquiterpene and diterpene synthase activity using the corresponding labeled C10, C15 and C20 prenyl diphosphate substrates (Bohlmann, J., Steele, C. L., and Croteau, R. (1997) J. Biol. Chem. 272, 21784-21792). […] Since it is known that the relatively large amino-terminal transit peptide of plant terpene synthases can impair expression of the functional preprotein in E. coli and promote the formation of intractable inclusion bodies (Williams, D. C., McGarvey, D. J., Katahira, E. J., and Croteau, R. (1998) Biochemisiry 37, 12213-12220), the“pseudomature” forms of ag6 (SEQ ID NO:64) and ag11 (SEQ ID NO:68) were prepared by truncation of the cDNAs to insert a starting methionine immediately upstream of their tandem arginine elements (R59R 60 for ag6 (SEQ ID NO:64), R^71R^72 for ag11 (SEQ ID NO:68)) for expression in E. coli BL21(DE3)/pSAG6(R) and E. coli BL21(DE3)/pSAG11(R). Similar truncations of previously characterized ag2.2 (SEQ ID NO:1) (myrcene synthase, R^64R^65) and ag3.18 (SEQ ID NO:3) ((−)-pinene synthase, (SEQ ID NO:5) R^64R^65) (Bohlmann, J., Steele, C. L., and Croteau, R. (1997) J. Biol. Chem. 272, 21784-21792) were prepared for expression from pSBET as controls for the possible alteration of product yield and distribution resulting from truncation.
Monoterpenes generated at preparative scale from geranyl diphosphate by the recombinant enzymes encoded by ag6 (SEQ ID NO:64), ag8 (SEQ ID NO:66), ag9 (SEQ ID NO:77) and ag11 (SEQ ID NO:68) were analyzed by GC-MS and chiral phase (β-cyclodextrin) capillary GC, and identified by comparison of retention times and mass spectra to authentic standards (FIGS. 6-9). […] The enzyme encoded by ag6 (SEQ ID NO:65) is therefore designated as (−)-1S,4R-camphene synthase. […]

[1] = from geranyl diphosphate, preparative scale

| Molecule | terpene synthase activity on expression from pSBET in E. coli BL21(DE3) (extracts of induced cells) | (−)-1S,5S-α-pinene share of monoterpene products [1] | (−)-1S,5S-β-pinene share of monoterpene products [1] | (−)-4S-limonene share of monoterpene products [1] | terpinolene share of monoterpene products [1] | (−)-1S,4R-camphene share of monoterpene products [1] | prenyl diphosphate substrate yielding terpene olefin products (C10, C15, C20 tested) (truncated forms pSAG6(R), pSAG11(R) in E. coli BL21(DE3)) |
| --- | --- | --- | --- | --- | --- | --- | --- |
| B1 | Enzymatic production of terpene olefin(s) was observed | 18% | 10% | 11% | 42% |  |  |
| B2 |  | 32% |  | 7% |  | 54% | only geranyl diphosphate yielded high levels of terpene olefin products |

— patent US6429014B1, “Monoterpene synthases from grand fir (Abies grandis)” (Washington State University Research Foundation, priority 1997, dated 2002)
